Test results taken from article PMC12427801, “Deciphering α-L-Fucosidase Activity Contribution in Human and Mouse: Tissue α-L-Fucosidase FUCA1 Meets Plasma α-L-Fucosidase FUCA2” (Cells, 2025).

B1: H6-tagged human tissue α-L-fucosidase 1 (FUCA1-H6) (enzyme, UniProt P04066 32-466, looked up)
chain: QPPRRYTPDWPSLDSRPLPAWFDEAKFGVFIHWGVFSVPAWGSEWFWWHWQGEGRPQYQRFMRDNYPPGFSYADFGPQFTARFFHPEEWADLFQAAGAKYVVLTTKHHEGFTNWPSPVSWNWNSKDVGPHRDLVGELGTALRKRNIRYGLYHSLLEWFHPLYLLDKKNGFKTQHFVSAKTMPELYDLVNSYKPDLIWSDGEWECPDTYWNSTNFLSWLYNDSPVKDEVVVNDRWGQNCSCHHGGYYNCEDKFKPQSLPDHKWEMCTSIDKFSWGYRRDMALSDVTEESEIISELVQTVSLGGNYLLNIGPTKDGLIVPIFQERLLAVGKWLSINGEAIYASKPWRVQWEKNTTSVWYTSKGSAVYAIFLHWPENGVLNLESPITTSTTKITMLGIQGDLKWSTDPDKGLFISLPQLPPSAVPAEFAWTIKLTGVK
notes: human tissue α-L-fucosidase FUCA1; N-glycosylated; also called H6-tagged FUCA1; H6-tagged human fucosidase; source: HT1080 cells, stably expressing, conditioned medium, purified (Ni-NTA)
B2: untagged human tissue α-L-fucosidase 1 (FUCA1) (enzyme, UniProt P04066 32-466, looked up)
chain: QPPRRYTPDWPSLDSRPLPAWFDEAKFGVFIHWGVFSVPAWGSEWFWWHWQGEGRPQYQRFMRDNYPPGFSYADFGPQFTARFFHPEEWADLFQAAGAKYVVLTTKHHEGFTNWPSPVSWNWNSKDVGPHRDLVGELGTALRKRNIRYGLYHSLLEWFHPLYLLDKKNGFKTQHFVSAKTMPELYDLVNSYKPDLIWSDGEWECPDTYWNSTNFLSWLYNDSPVKDEVVVNDRWGQNCSCHHGGYYNCEDKFKPQSLPDHKWEMCTSIDKFSWGYRRDMALSDVTEESEIISELVQTVSLGGNYLLNIGPTKDGLIVPIFQERLLAVGKWLSINGEAIYASKPWRVQWEKNTTSVWYTSKGSAVYAIFLHWPENGVLNLESPITTSTTKITMLGIQGDLKWSTDPDKGLFISLPQLPPSAVPAEFAWTIKLTGVK
notes: human tissue α-L-fucosidase FUCA1; untagged, secreted into the medium; N-glycosylated; also called untagged FUCA1; hFUCA1; source: CHO-K1 cells, stably expressing, conditioned medium, purified (ammonium sulfate precipitation, strong cation exchange)

Target: the molecule itself
Assay: SEC; Superdex 200 Increase 10/300 GL, McIlvaine buffer pH 4.6, 0.3 mL/min; purified protein; fractions tested by 4-MUF fucosidase activity (FUCA1) or H6-tag western blot (FUCA2-H6)

Protein | binding result
B1 | binds
B2 | binds
